This assay addresses T1, recombinant Sgf73p (MBP-Sgf73p) (S. cerevisiae, UniProt P53165 1-657).
T1 construct: Sgf73p of the SAGA DUBm, S. cerevisiae; source: recombinant
T1 sequence (looked up): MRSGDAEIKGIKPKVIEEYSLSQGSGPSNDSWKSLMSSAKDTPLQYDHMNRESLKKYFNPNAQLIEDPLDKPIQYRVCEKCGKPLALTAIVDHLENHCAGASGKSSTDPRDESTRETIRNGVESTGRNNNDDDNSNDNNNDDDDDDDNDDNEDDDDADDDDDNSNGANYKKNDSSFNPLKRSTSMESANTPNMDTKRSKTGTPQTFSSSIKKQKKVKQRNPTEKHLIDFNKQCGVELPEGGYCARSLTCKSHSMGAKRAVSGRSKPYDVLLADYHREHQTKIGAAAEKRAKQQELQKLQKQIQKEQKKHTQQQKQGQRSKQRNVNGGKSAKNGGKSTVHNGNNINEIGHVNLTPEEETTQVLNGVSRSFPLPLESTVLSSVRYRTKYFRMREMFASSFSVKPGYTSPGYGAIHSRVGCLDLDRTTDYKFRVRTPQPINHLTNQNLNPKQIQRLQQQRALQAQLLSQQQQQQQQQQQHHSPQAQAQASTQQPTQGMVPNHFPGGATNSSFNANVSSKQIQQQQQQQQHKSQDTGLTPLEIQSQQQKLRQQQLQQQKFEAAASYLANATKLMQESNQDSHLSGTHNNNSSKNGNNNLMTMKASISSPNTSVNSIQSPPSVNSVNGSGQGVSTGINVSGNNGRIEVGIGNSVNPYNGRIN
Kind of assay: pull-down; GST-tagged Yra1p or its subfragments as bait (1 µg) on beads, 200 ng target protein; 50 mM HEPES-KOH pH 7.5, 150 mM NaCl, 10% glycerol, 0.1% NP40, 0.5 mM DTT, 1 mM EDTA; 4 °C, 2 h; Western blotting. The following applies: both partners purified. A general note: Immunoblotting shows a protein as a band on a membrane.

B1: GST-tagged Yra1p (natural protein, S. cerevisiae, UniProt Q12159 1-226, looked up)
chain: MSANLDKSLDEIIGSNKAGSNRARVGGTRGNGPRRVGKQVGSQRRSLPNRRGPIRKNTRAPPNAVARVAKLLDTTREVKVNVEGLPRDIKQDAVREFFASQVGGVQRVLLSYNERGQSTGMANITFKNGELARRAVERFNGSPIDGGRSRLRLNLIVDPNQRPVKSLADRIKAMPQKGGNAPRPVKRGPNRKAAMAKSQNKPKREKPAKKSLEDLDKEMADYFEKK
notes: Yra1p, essential mRNA export factor, S. cerevisiae; also called GST-Yra1p
Take B1: the binding result was “binds”.
